The record followed here is US20230039279.

The target in data set [1] is T1, HNE peptide substrate H2, GRCR-PMAVVQSVP-RCRG (not fully specified).
T1 chain: GRCRPMAVVQSVPRCRG

Data set [2] concerns the target T2, MMP-9 sensitive peptide (GPRSLSG-RRCG) linked ibuprofen (not fully specified).
T2 chain: GPRSLSGRRCG

B1: human neutrophil elastase (HNE) (protein)
chain: IVGGRRARPHAWPFMVSLQLRGGHFCGATLIAPNFVMSAAHCVANVNVRAVRVVLGAHNLSRREPTRQVFAVQRIFENGYDPVNLLNDIVILQLNGSATINANVQVAQLPAQGRRLGNGVQCLAMGWGLLGRNRGIASVLQELNVTVVTSLCRRSNVCTLVRGRQAGVCFGDSGSPLVCNGLIHGIASFVRGGCASGLYPDAFAPVAQFVNWIDSIIQ
For B1, the “degradation of H2-M2 combinational hydrogel and release of PLGA particles over 24 hours” value in data set [1] is “H2 and M2 peptide substrates were preferentially cleaved by HNE and MMP-9 proteases respectively”. Moreover, in data set [2], the “maximum cumulative drug release at 48 hours from the dual-responsive conjugate hydrogel, HNE alone (1 µg/ml)” value is “maximum cumulative drug release reached 24%, which was much lower than the release in enzyme MMP-9 solution”; the “specificity of protease-triggered ibuprofen liberation (FIG. 10B)” value is “the peptide sequence, GPRSLSGRRCG (SEQ ID NO: 20), as a spacer illustrated a good specificity toward MMP-9 compared to cathepsin B and human neutrophil elastase (HNE)”.
